From patent US20140377284A1 (BIOCEROX PRODUCTS B V, published 2014)

Tests used:
[1] = biological target: T1, human fibronectin-derived control peptide (extra type III structural domain) (human); assay: peptide ELISA
T1 construct: Synthesized by Pepscan Presto; coated on ELISA plates
T1 peptide: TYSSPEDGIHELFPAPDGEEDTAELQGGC
Protocol: (§1) After adding 1 M […], optical densities was measured at a wavelength of 450 nm (reference wavelength of 655 nm) using a microplate reader (BioRad).
(§2) Ninety six-wells flat-bottom ELISA plates (Corning) were coated with 10 ng/well human CD134-derived peptide (synthesized by Pepscan Presto, Lelystad, The Netherlands), which corresponded to amino acid sequence of truncated CRD3 A1-module-CRD4 subdomain A1 module (see SEQ ID NO. 38) or with 10 ng/well human fibronectin-derived control peptide (synthesized by Pepscan Presto, Lelystad, The Netherlands), which corresponded to amino acid sequence of extra type III structural domain (see SEQ ID NO. 37) in PBS o/n at 4° C. After extensive washing in PBS/0.05% Tween 20, plates were blocked in PBS/0.05% Tween 20/1% BSA fraction V (Roche) for 1 hour at RT. […] After extensive washing in PBS/0.05% Tween 20, binding of antibodies was determined with 1:5000 diluted horseradish peroxidase-conjugated goat anti-human IgG Fcγ-specific antibodies (Jackson ImmunoResearch) for 1 hour at RT, followed by a ready-to-use solution of TMB substrate (Invitrogen) for colorimetric detection. After adding 1 M H₂SO₄, optical densities was measured at a wavelength of 450 nm (reference wavelength of 655 nm) using a microplate reader (BioRad).

[2] = biological target: T2, human CD134-derived peptide (truncated CRD3 A1-module-CRD4 subdomain A1-module) (human); assay: peptide ELISA, 10 ng/well peptide coated
T2 construct: Synthesized by Pepscan Presto; coated on ELISA plates
T2 peptide: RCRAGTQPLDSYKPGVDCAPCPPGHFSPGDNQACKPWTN
Protocol: as §1, §2

[3] = biological target: T3, human CD134 (full-length, on cells) (human, UniProt P43489 29-277); assay: flow cytometry, stable CD134 293-F clone no. 23
T3 construct: also called OX40; TNFRSF4
T3 sequence: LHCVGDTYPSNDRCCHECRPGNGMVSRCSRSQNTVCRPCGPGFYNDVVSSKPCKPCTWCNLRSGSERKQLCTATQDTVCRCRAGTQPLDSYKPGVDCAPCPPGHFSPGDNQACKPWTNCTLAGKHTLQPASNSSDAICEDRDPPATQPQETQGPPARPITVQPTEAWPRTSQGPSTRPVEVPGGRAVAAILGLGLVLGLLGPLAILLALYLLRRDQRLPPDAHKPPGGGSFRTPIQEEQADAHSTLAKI
Protocol: Full-length human CD134 (SEQ ID NO. 1) was re-cloned in a pcDNA3.1-derived expression plasmid (see Example 11 (d) below). […] After extensive washing in PBS/BSA/NaN₃, cells were subsequently incubated with 1:200 diluted PE-conjugated goat anti-mouse IgG (Fcγ specific) antibodies (Jackson ImmunoResearch) or with 1:200 diluted PE-conjugated goat anti-human IgG (Fcγ specific) antibodies (Jackson ImmunoResearch) for 30 minutes at 4° C. After extensive washing in PBS/BSA/NaN₃, cells were fixed in 2% formaldehyde in PBS/BSA/NaN₃ for 30 minutes at 4° C. Binding of antibodies was measured using flow cytometry (FACSCalibur; BD Biosciences).

[4] = biological target: T4, truncated human CD134 'truncated (tc) CRD4' construct (human, UniProt P43489 147-277); assay: flow cytometry, transiently transfected 293-F cells
T4 construct: also called truncated CRD4
T4 sequence: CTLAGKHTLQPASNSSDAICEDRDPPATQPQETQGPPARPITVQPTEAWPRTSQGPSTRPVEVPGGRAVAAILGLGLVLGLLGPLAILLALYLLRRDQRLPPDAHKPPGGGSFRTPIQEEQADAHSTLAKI
Protocol: After 48 h, surface human CD134 expression on transfected cells was analyzed by FACS analysis. To this end, transfected cells were harvested and put at 1-2×10⁶ cells/mL in ice-chilled PBS/BSA/NaN₃ supplemented with 50 μg/mL purified human IgG (Sigma; blocking Fey receptors). […] After extensive washing in PBS/BSA/NaN₃, cells were subsequently incubated with 1:200 diluted PE-conjugated goat anti-mouse IgG (Fcγ specific) antibodies (Jackson ImmunoResearch) or with 1:200 diluted PE-conjugated goat anti-human IgG (Fcγ specific) antibodies (Jackson ImmunoResearch) for 30 minutes at 4° C. […] After extensive washing in PBS/BSA/NaN₃, cells were subsequently incubated with 1:200 diluted PE-conjugated goat anti-mouse IgG (Fcγ specific) antibodies (Jackson ImmunoResearch) for 30 minutes at 4° C. After extensive washing in PBS/BSA/NaN₃, cells were fixed in 2% formaldehyde in PBS/BSA/NaN₃ for 30 minutes at 4° C. Binding of antibodies was measured using flow cytometry (FACSCalibur; BD Biosciences).

[5] = biological target: T3, human CD134 (full-length, on cells); assay: flow cytometry, PHA-stimulated human CD3+ T lymphocytes
[6] = biological target: T5, recombinant human CD134:human Fcγ (IgG1) fusion protein (human, UniProt P01857-1 100-330 = IgG part, limits assumed); assay: ELISA, plate-bound CD134:Fc, biotinylated antibody detected with streptavidin-HRP
T5 construct: domain: Fcγ (IgG1); Bought (R&D Systems); also called rhuCD134

[7] = biological target: T5, recombinant human CD134:human Fcγ …; assay: competition ELISA, plate-bound CD134:Fc; competitor biotinylated mouse 12H3 at 20 ng/mL
Protocol: Ninety six-wells flat-bottom ELISA plates (Corning) were coated with 50 ng/well recombinant human CD134:human Fcγ (IgG1) fusion protein (R&D Systems) in PBS o/n at 4° C. After extensive washing in PBS/0.05% Tween 20, plates were blocked in PBS/0.05% Tween 20/1% BSA fraction V (Roche) for 1 hour at RT. […] After adding 1 M H₂SO₄, optical densities were measured at a wavelength of 450 nm (reference wavelength of 655 nm) using a microplate reader (BioRad).

[8] = biological target: T3, human CD134 (full-length, on cells); assay: flow cytometry, stable CD134 293-F clone no. 5, biotinylated antibody detected with streptavidin-PE
[9] = biological target: T3, human CD134 (full-length, on cells); assay: competition flow cytometry, stable CD134 293-F clone no. 5; competitor biotinylated mouse 12H3 at 700 ng/mL
Protocol: Full-length human CD134 (SEQ ID NO1) was re-cloned in a pcDNA3.1-derived expression plasmid (see Example 11 (c) above). […] After extensive washing in PBS/BSA/NaN₃, cells were fixed in 2% formaldehyde in PBS/BSA/NaN₃ for 30 minutes at 4° C.

binding result [1]: no binding (tested: 50.0 µg/mL) | binding result [2]: binds | EC50 [3]: > 0.2 µg/mL | binding result [4]: no binding (tested: 20.0 µg/mL) | EC50 [5]: ~0.5 µg/mL | EC50 [6]: ~0.02 µg/mL | IC50 [7]: ~0.75 µg/mL | EC50 [8]: ~0.7 µg/mL | IC50 [9]: ~3.5 µg/mL
B1: mouse anti-human CD134 monoclonal antibody clone 12H3 (antibody, V domains shown)
VH: EVQLQQSGPELVKPGASVKISCKTSGYTFKDYTMHWVKQSHGKSLEWIGGIYPNNGGSTYNQNFKDKATLTVDKSSSTAYMEFRSLTSEDSAVYYCARMGYHGPHLDFDVWGAGTTVTVSP
VL: DIVMTQSHKFMSTSLGDRVSITCKASQDVGAAVAWYQQKPGQSPKLLIYWASTRHTGVPDRFTGGGSGTDFTLTISNVQSEDLTDYFCQQYINYPLTFGGGTKLEIKR
notes: also called m12H3; parental mouse anti-human CD134 antibody clone 12H3
